This test concerns the target sarcomeric α-Actin (ACTC1) (mouse (endogenous in heart)) (UniProt P68033). Put plainly: co-IP; heart lysates of CTL and α-MHC-cre DKO mice, mouse anti-α-Actin, Protein A/G beads, Western blot, densitometry (n = 4). A general note: Immunoblotting shows a protein as a band on a membrane.

Turning to “sarcomeric α-Actinin (ACTN) (from UniProt Q9JI91 1-894) (natural protein)”, the fold change of ACTN co-precipitated with ACTC1, α-MHC-cre DKO hearts against CTL hearts turned out to be 0.63 fold.

Source of the values: PMC8803338.
